According to the supplement of paper PMC11246515:
± gives the standard deviation of the averaged measurements.

Experiment: total protein half-life in vivo (active degradation + dilution); higher = more stable protein
[1] = E. coli NCM3722 delta-clpP, growth: N-lim chemostat, doubling time 6 h
[2] = E. coli NCM3722 delta-hslV, growth: N-lim chemostat, doubling time 6 h
[3] = E. coli NCM3722 delta-lon, growth: N-lim chemostat, doubling time 6 h
[4] = E. coli NCM3722 delta-smpB, growth: N-lim chemostat, doubling time 6 h
[5] = wild type E. coli NCM3722, growth: C-lim chemostat, doubling time 12 h
[6] = wild type E. coli NCM3722, growth: N-lim chemostat, doubling time 6 h
[7] = wild type E. coli NCM3722, growth: N-lim chemostat, doubling time 12 h
[8] = wild type E. coli NCM3722, growth: P-lim chemostat, doubling time 6 h
[9] = wild type E. coli NCM3722, growth: P-lim chemostat, doubling time 12 h
[10] = E. coli NCM3722 delta-clpP delta-lon delta-hslV, growth: N-lim chemostat, doubling time 6 h
[11] = wild type E. coli NCM3722, growth: C-lim chemostat, doubling time 3 h
[12] = wild type E. coli NCM3722, growth: C-lim chemostat, doubling time 6 h

Sequence | total protein half-life in vivo [1] [h] | total protein half-life in vivo [2] [h] | total protein half-life in vivo [3] [h] | total protein half-life in vivo [4] [h] | total protein half-life in vivo [5] [h] | total protein half-life in vivo [6] [h] | total protein half-life in vivo [7] [h] | total protein half-life in vivo [8] [h] | total protein half-life in vivo [9] [h] | total protein half-life in vivo [10] [h] | total protein half-life in vivo [11] [h] | total protein half-life in vivo [12] [h]
MGIKQHNGNTKADRLAELKIRSPSIQLIKFGAIGLNAIIFSPLLIAADTGSQYGTNITINDGDRITGDTADPSGNLYGVMTPAGNTPGNINLGNDVTVNVNDASGYAKGIIIQGKNSSLTANRLTVDVVGQTSAIGINLIGDYTHADLGTGSTIKSNDDGIIIGHSSTLTATQFTIENSNGIGLTINDYGTSVDLGSGSKITTDGSTGVYIGGLNGNNANGAARFTATDLTIDVQGYSAMGINVQKNSVVDLGTNSTIKTNGDNAHGLWSFGQVSANALTVDVTGAAANGVEVRGGTTTIGADSHISSAQGGGLVTSGSDAIINFTGTAAQRNSIFSGGSYGASAQTATAVVNMQNTDITVDRNGSLALGLWALSGGRITGDSLAITGAAGARGIYAMTNSQIDLTSDLVIDMSTPDQMAIATQHDDGYAASRINASGRMLINGSVLSKGGLINLDMHPGSVWTGSSLSDNVNGGKLDVAMNNSVWNVTSNSNLDTLALSHSTVDFASHGSTAGTFATLNVENLSGNSTFIMRADVVGEGNGVNNKGDLLNISGSSAGNHVLAIRNQGSEATTGNEVLTVVKTTDGAASFSASSQVELGGYLYDVRKNGTNWELYASGTVPEPTPNPEPTPAPAQPPIVNPDPTPEPAPTPKPTTTADAGGNYLNVGYLLNYVENRTLMQRMGDLRNQSKDGNIWLRSYGGSLDSFASGKLSGFDMGYSGIQFGGDKRLSDVMPLYVGLYIGSTHASPDYSGGDGTARSDYMGMYASYMAQNGFYSDLVIKASRQKNSFHVLDSQNNGVNANGTANGMSISLEAGQRFNLSPTGYGFYIEPQTQLTYSHQNEMTMKASNGLNIHLNHYESLLGRASMILGYDITAGNSQLNVYVKTGAIREFSGDTEYLLNNSREKYSFKGNGWNNGVGVSAQYNKQHTFYLEADYTQGNLFDQKQVNGGYRFSF | > 8 | 6.81 ± 1.4 | 5.53 ± 0.71 | 5.18 ± 1 | > 16 | 7.13 | 11.6 ± 0.3 | 4.97 ± 1.4 | 12.5 ± 2.7 |  |  | 
MGKEVMGKKENEMAQEKERPAGSQSLFRGLMLIEILSNYPNGCPLAHLSELAGLNKSTVHRLLQGLQSCGYVTTAPAAGSYRLTTKFIAVGQKALSSLNIIHIAAPHLEALNIATGETINFSSREDDHAILIYKLEPTTGMLRTRAYIGQHMPLYCSAMGKIYMAFGHPDYVKSYWESHQHEIQPLTRNTITELPAMFDELAHIRESGAAMDREENELGVSCIAVPVFDIHGRVPYAVSISLSTSRLKQVGEKNLLKPLRETAQAISNELGFTVRDDLGAIT | 6.38 ± 0.83 | 5.57 ± 0.36 | 5.84 ± 0.19 | 5.29 ± 0.3 | 12.6 ± 1.2 | 5.86 ± 0.21 | 9.57 ± 0.79 | 6.38 ± 1.8 | 11.2 ± 2.3 | 6.16 ± 0.066 | 2.91 ± 0.036 | 6.07 ± 0.19
MGKHHWKIEKQPEWYVKAVRKTIAALPSGYAEAADWLDVTENALFNRLRADGDQIFPLGWAMVLQRAGGTHFIADAVAQSANGVFVSLPDVEDVDNADINQRLLEVIEQIGSYSKQIRSAIEDGVVEPHEKTAINDELYLSISKLQEHAALVYKIFCISESNDARECAAPGVVASIASGCGETNA |  |  |  |  |  |  |  |  |  | 2.93 ± 0.6 |  | 
MGKSIVVVSAVNFTTGGPFTILKKFLAATNNKENVSFIALVHSAKELKESYPWVKFIEFPEVKGSWLKRLHFEYVVCKKLSKELNATHWICLHDITANVVTKKRYVYCHNPAPFYKGILFREILMEPSFFLFKMLYGLIYKINIKKNTAVFVQQFWMKEKFIKKYSINNIIVSRPEIKLSDKSQLTDDDSQFKNNPSELTIFYPAVPRVFKNYELIISAARKLKEQSNIKFLLTISGTENAYAKYIISLAEGLDNVHFLGYLDKEKIDHCYNISDIVCFPSRLETWGLPLSEAKERGKWVLASDFPFTRETLGSYEKKAFFDSNNDDMLVKLIIDFKKGNLKKDISDANFIYRNENVLVGFDELVNFITEEH | > 8 | > 8 | 7.3 ± 0.89 | 5.6 ± 0.084 | 10.5 | 5.39 ± 0.26 | 12.4 ± 0.87 | 6.42 | 14.9 ± 1.6 | 5.98 |  | 5.53
MGKTQPLPILITGGGRRIGLALAWHFINQKQPVIVSYRTHYPAIDGLINAGAQCIQADFSTNDGVMAFADEVLKSTHGLRAILHNASAWMAEKPGAPLADVLACMMQIHVNTPYLLNHALERLLRGHGHAASDIIHFTDYVVERGSDKHIAYAASKAALDNMTRSFARKLAPEVKVNSIAPSLILFNEHDDAEYRQQALNKSLMKTAPGEKEVIDLVDYLLTSCFVTGRSFPLDGGRHLR [P0AFS3] | 5.33 ± 1.2 | 5.31 ± 0.45 | 5.6 ± 0.53 | 4.85 ± 0.43 | 11.5 ± 1 | 5.32 ± 0.17 | 9.17 ± 0.28 | 5.56 ± 0.12 | 12.3 ± 0.39 | 5.23 ± 0.36 | 3.124 ± 0.021 | 5.67 ± 0.13
MGLCSRYKSLTCNSCSMHCQIMPEESPRLQYCANSCFCMWPEESSYFNRGVVEGILTKNHNARLSGYIFVDFSVSFLRLFLEKDWIDYLASTDMGIVLVSDRNMQSLANYWRKHNSAISAVIYNDDGLDVANEKIRQLFIGRYLSFTGGNTLTQMEFTIMGYMVSGYNPYQIAEVLDMDIRSIYAYKQRIEKRMGGKINELFIRSHSVQH |  |  |  |  |  |  |  |  |  | 4.5 ± 2.7 |  | 
MGLFDKLKSLVSDDKKDTGTIEIIAPLSGEIVNIEDVPDVVFAEKIVGDGIAIKPTGNKMVAPVDGTIGKIFETNHAFSIESDSGVELFVHFGIDTVELKGEGFKRIAEEGQRVKVGDTVIEFDLPLLEEKAKSTLTPVVISNMDEIKELIKLSGSVTVGETPVIRIKK | 4.93 ± 0.37 | 4.53 ± 0.15 | 4.82 ± 0.3 | 4.415 ± 0.029 | 10.6 ± 1.7 | 4.48 ± 0.28 | 7.87 ± 0.1 | 5.64 ± 0.17 | 11.1 ± 0.48 | 5.14 ± 0.12 | 3.29 ± 0.1 | 5.34 ± 0.22
MGLFNFVKDAGEKLWDAVTGQHDKDDQAKKVQEHLNKTGIPDADKVNIQIADGKATVTGDGLSQEAKEKILVAVGNISGIASVDDQVKTATPATASQFYTVKSGDTLSAISKQVYGNANLYNKIFEANKPMLKSPDKIYPGQVLRIPEE [P0ADE6] | 5.8 ± 0.83 | 5.979 ± 0.053 | 6.34 ± 0.072 | 5.3 ± 0.33 | 9.85 ± 1.1 | 4.67 ± 0.066 | 9.41 ± 1.2 | 5.21 ± 0.41 | 11.7 ± 0.15 | 6.19 ± 0.023 | 3.18 ± 0.085 | 5.55 ± 0.29
MGLMNAFDSQTEDSSPAIGRNLRSRPLARKKLSEMVEEELEQMIRRREFGEGEQLPSERELMAFFNVGRPSVREALAALKRKGLVQINNGERARVSRPSADTIIGELSGMAKDFLSHPGGIAHFEQLRLFFESSLVRYAAEHATDEQIDLLAKALEINSQSLDNNAAFIRSDVDFHRVLAEIPGNPIFMAIHVALLDWLIAARPTVTDQALHEHNNVSYQQHIAIVDAIRRHDPDEADRALQSHLNSVSATWHAFGQTTNKKK [P0A8W0] | 5.05 ± 0.14 | 3.63 ± 0.045 | 4.53 ± 0.93 | 3.48 ± 0.66 | 6.39 ± 0.4 | 3.95 ± 0.16 | 5.27 ± 0.066 | 3.59 ± 0.14 | 6.29 ± 0.19 | 5.49 ± 0.12 | 2.383 ± 0.0064 | 4.17 ± 0.12
MGMENYNPPQEPWLVILYQDDHIMVVNKPSGLLSVPGRLEEHKDSVMTRIQRDYPQAESVHRLDMATSGVIVVALTKAAERELKRQFREREPKKQYVARVWGHPSPAEGLVDLPLICDWPNRPKQKVCYETGKPAQTEYEVVEYAADNTARVVLKPITGRSHQLRVHMLALGHPILGDRFYASPEARAMAPRLLLHAEMLTITHPAYGNSMTFKAPADF [P0AA37] | 4.59 ± 0.51 | 5.03 ± 0.2 | 4.55 ± 1.1 | 4.63 ± 0.28 |  | 4.66 ± 0.18 | 7.6 | 6.39 | 12.7 | 4.98 ± 0.17 | 3.82 | 7.71
MGMIGYFAEIDSEKINQLLESTEKPLMDNIHDTLSGLRRLDIDKRWDFLHFGLTGTSAFDPAKNDPLSRAVLGEHSLEDGIDGFLGLTWNQELAATIDRLESLDRNELRKQFSIKRLNEMEIYPGVTFSEELEGQLFASIMLDMEKLISAYRRMLRQGNHALTVIVG |  | 2.19 |  | 1.91 ± 0.022 | 4.57 |  |  | 3.44 ± 0.17 | 6.19 ± 0.12 |  | 1.89 | 4.04
MGQEKLYIEKELSWLSFNERVLQEAADKSNPLIERMRFLGIYSNNLDEFYKVRFAELKRRIIISEEQGSNSHSRHLLGKIQSRVLKADQEFDGLYNELLLEMARNQIFLINERQLSVNQQNWLRHYFKQYLRQHITPILINPDTDLVQFLKDDYTYLAVEIIRGDTIRYALLEIPSDKVPRFVNLPPEAPRRRKPMILLDNILRYCLDDIFKGFFDYDALNAYSMKMTRDAEYDLVHEMEASLMELMSSSLKQRLTAEPVRFVYQRDMPNALVEVLREKLTISRYDSIVPGGRYHNFKDFINFPNVGKANLVNKPLPRLRHIWFDKAQFRNGFDAIRERDVLLYYPYHTFEHVLELLRQASFDPSVLAIKINIYRVAKDSRIIDSMIHAAHNGKKVTVVVELQARFDEEANIHWAKRLTEAGVHVIFSAPGLKIHAKLFLISRKENGEVVRYAHIGTGNFNEKTARLYTDYSLLTADARITNEVRRVFNFIENPYRPVTFDYLMVSPQNSRRLLYEMVDREIANAQQGLPSGITLKLNNLVDKGLVDRLYAASSSGVPVNLLVRGMCSLIPNLEGISDNIRAISIVDRYLEHDRVYIFENGGDKKVYLSSADWMTRNIDYRIEVATPLLDPRLKQRVLDIIDILFSDTVKARYIDKELSNRYVPRGNRRKVRAQLAIYDYIKSLEQPE [P0A7B1] | 6.36 ± 0.29 | 6.79 ± 0.42 | 6.1 ± 0.063 | 6.038 ± 0.039 |  | 5.94 ± 0.53 | 13 ± 1.2 | 6.65 ± 0.23 | 13 ± 1.4 | 6.92 ± 0.14 | 3.29 ± 0.35 | 6.27 ± 0.57
MGQRIPVTLGNIAPLSLRPFQPGRIALVCEGGGQRGIFTAGVLDEFMRAQFNPFDLYLGTSAGAQNLSAFICNQPGYARKVIMRYTTKREFFDPLRFVRGGNLIDLDWLVEATASQMPLQMDTAARLFDSGKSFYMCACRQDDYAPNYFLPTKQNWLDVIRASSAIPGFYRSGVSLEGINYLDGGISDAIPVKEAARQGAKTLVVIRTVPSQMYYTPQWFKRMERWLGDSSLQPLVNLVQHHETSYRDIQQFIEKPPGKLRIFEIYPPKPLHSIALGSRIPALREDYKLGRLCGRYFLATVGKLLTEKAPLTRHLVPVVTPESIVIPPAPVANDTLVAEVSDAPQANDPTFNNEDLA | 1.8805 ± 0.0012 | 1.31 ± 0.025 | 1.89 ± 0.25 | 1.185 ± 0.0061 | 4.59 ± 0.59 | 1.45 ± 0.16 | 1.77 ± 0.024 | 2.12 ± 0.31 | 4.69 ± 0.97 | 5.99 ± 1.5 | 1.89 ± 0.15 | 3.889 ± 0.011
MGRILLDLSNEVIKQLDDLEVQRNLPRADLLREAVDQYLINQSQTARTSVPGIWQGCEEDGVEYQRKLREEW [P0AFU6] | 6.89 |  |  |  |  |  |  |  |  |  |  | 
MGSNIHGISCTANNYLKQAWNDIKNEYEKNQTYSITLFENTLVCFMRLYNELRRKVNEEDTPCLECESLEKEFEEMQNDNDLSLFMRILRTNDTQIYSGVSGGITYTIQYVRDIDIVRVSLPGRASESITDFKGYYWYNFMEYIENINACDDVFSEYCFDDENISVQPERINTPGISDLDSDIDLSGISFIQRETNQALGLKYAPVDGDGYCLLRAILVLKQHDYSWALVSYKMQKEVYNEFIKMVDKKTIEALVDTAFYNLREDVKTLFGVDLQSDNQIQGQSSLMSWSFLFFKKQFIDSCLNNEKCILHLPEFIFNDNKNLLALDTDTSDRIKAVKNFLVVLSDSICSLFIVNSNVASISLGNESFSTDEDLEYGYLMNTGNHYDVYLPPELFAQAYKLNNKEMNAQLDYLNRYAI |  |  | 5.18 |  |  |  |  |  |  |  |  | 
